Where a chain is given by its changes, count along the chain named.
Columns and labels:
Test in all cases: flow cytometry, alanine-scan library in HEK-293T, with cytochalasin B
[1] = biological target: T1, hsGLUT4 Q295A (human, UniProt P14672 1-509)
T1 sequence: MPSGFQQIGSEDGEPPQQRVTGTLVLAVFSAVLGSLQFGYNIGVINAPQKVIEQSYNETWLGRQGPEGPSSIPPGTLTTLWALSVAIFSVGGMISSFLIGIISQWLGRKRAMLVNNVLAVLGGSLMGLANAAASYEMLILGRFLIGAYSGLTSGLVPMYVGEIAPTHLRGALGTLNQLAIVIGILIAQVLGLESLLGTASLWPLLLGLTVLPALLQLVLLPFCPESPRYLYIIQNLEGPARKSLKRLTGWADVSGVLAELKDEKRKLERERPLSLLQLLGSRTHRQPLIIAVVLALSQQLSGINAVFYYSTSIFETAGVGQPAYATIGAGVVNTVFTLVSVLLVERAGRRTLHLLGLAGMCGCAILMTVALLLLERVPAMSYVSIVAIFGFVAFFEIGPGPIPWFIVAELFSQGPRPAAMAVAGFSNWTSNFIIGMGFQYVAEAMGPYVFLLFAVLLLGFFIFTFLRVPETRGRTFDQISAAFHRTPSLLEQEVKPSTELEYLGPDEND
How it was run: (§1)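 HEK-293T cells expressing individual GLUT4 alanine mutants were stained 48 h post-transfection with anti-GLUT4 scFv MAbs (2 μg/ml), then biotinylated secondary and streptavidin-PerCP, and read by high-throughput flow cytometry. Where used, cytochalasin B (10 uM final) was given for 30 min before and during primary antibody staining.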

[2] = biological target: T2, hsGLUT4 P66A (human, UniProt P14672 1-509)
T2 sequence: T1 sequence with P66A, A295Q
How it was run: as §1

[3] = biological target: T3, hsGLUT4 E162A (human, UniProt P14672 1-509)
T3 sequence: T1 sequence with E162A, A295Q
How it was run: as §1

[4] = biological target: T4, hsGLUT4 N508A (human, UniProt P14672 1-509)
T4 sequence: T1 sequence with A295Q, N508A
How it was run: as §1

B1: AB102 (Fc fusion)
scFv: ALTQPSSVSANLGGTVKITCSGGGSYGYGWYQQKSPGSAPVTVIYSNDQRPSDIPSRFSGSKSGSTATLTITGVRAEDEAIYYCGSTDSDYVGIFGAGTTLTVLGQSSRSSGGGGSSGGGGSAVTLDESGGGLQTPGGTLSLVCKASGFDFSSYATIWVRQAPGKGLEWVAGISGTGTGSSTGYAPAVKGRATISRDNGQSTVRLQLNNLRAEDTGSYFCAKSTGYGDSWIYPDSIDAWGHGTEVIVSS
notes: also called MAb AB102; not shown: Fc fragment of human IgG1, cloned in frame with the scFv
% of binding to wild type GLUT4 [1]: 89% | % of binding to wild type GLUT4 [2]: 97% | % of binding to wild type GLUT4 [3]: 7% | % of binding to wild type GLUT4 [4]: 70%
